This is an account of results in patent publication US8399416B2, “Method of using heparin binding motif for treating asthma” (National Tsing Hua University, priority 2008, dated 2013).

Broadly, the IC50 is the concentration that inhibits the measured activity by half.

In one series the test system is Beas-2B cells. Description: Cell ELISA of MBP-ECP and MBP-ECP mt1 binding to cells. Format: cell-based, human. The settings on record: MBP-ECP mt1 relative to MBP-ECP; 1 h at 4° C. On the technique in general: In an ELISA, binding on a coated surface is turned into a signal by an enzyme label.
The next series concerns Beas-2B cell line. Description: MTT cytotoxicity assay of ECP. Format: cell-based, human. The note with it: 37° C. 48 h, read-out: IC50 for cytotoxic ECP. How it is done: FIG. 12. Cytotoxicity of wild-type and mutant ECP. Beas-2B cells were incubated with increasing concentrations of wild-type and mt1 ECP at 37° C. for 48 h, followed by the MTT assay. The error bars show standard deviation among triplicate experiments.
The inhibition of lymphocyte and mammalian cell growth by ECP has been reported (Fan, T. C., et al. (2007) Traffic 8, 1778-1795; Maeda, T., et al. (2002) European Journal of Biochemistry 269, 307-316). As a physiological test, the cytotoxicity of ECP mt1 was monitored by MTT assay. The effect of ECP on the cell growth was determined by a colorimetric assay using 3-(4,5-dimethylthiazol-2-yl)-2,5-diphenyltetrazolium bromide (MTT) (US Biological, MA, USA). Cells were plated in a 96-well plate (5000 cells/well) and incubated at 37° C. overnight. Each sample was incubated with the indicated concentration (1-100 μM) of ECP. Forty-eight hours after treatment with ECP, MTT was added, and cell growth was monitored at A570 to measure the mitochondrial-dependent formation of a colored product.

B1: ECP mt1: ECP mutant with R34A/W35A/R36A/K38A substitutions (protein, UniProt P12724 28-160, looked up, variant R34A W35A R36A K38A)
Eosinophil cationic protein: RPPQFTRAQWFAIQHISLNPPRCTIAMRAINNYAAACANQNTFLRTTFANVVNVCGNQSIRCPHNRTLNNCHRSRFRVPLLHCDLINPGAQNISNCTYADRPGRRFYVVACDNRDPRDSPRYPVVPVHLDTTI
In the series on Beas-2B cells, B1 came in with a cell-binding activity of 50%. For the same molecule, in the series with Beas-2B cell line, the IC50 is 38.5 µM.
